Experiments:
[1] = target: T1, biotinylated murine CCL20 (Mus musculus, UniProt O89093, biotin); assay: ELISA; capture ELISA: plate-coated anti-mouse Fc antibody (1 ug/mL) captures the antibody variant (5 ug/mL); biotinylated muCCL20 titrated from 0 to 600 nM, 1 h; conditions: both partners purified
T1 construct: CCL20, mouse; recombinant; m2 with biotin; also called biotinylated muCCL20; muCCL20 antigen; source: in-house, standard mammalian cell expression; biotinylated

[2] = target: T2, biotinylated murine CCL20, O89093; assay: capture ELISA; conditions: chain shown with the change; highest mAb concentration, log[nM] about 1.8; plate-coated anti-Fc antibody to capture the antibody variants; parent: est. 1.8; read off a plot
T2 chain: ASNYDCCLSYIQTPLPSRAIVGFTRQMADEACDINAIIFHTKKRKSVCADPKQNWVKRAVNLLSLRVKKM

murine CCL20 [3] = target: T3, murine CCL20 (mouse, UniProt O89093 28-97); assay: SPR
T3 chain: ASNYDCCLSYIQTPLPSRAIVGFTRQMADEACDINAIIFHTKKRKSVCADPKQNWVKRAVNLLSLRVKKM

murine CCL20 [4] = target: T4, murine CCL20 (Mus musculus, UniProt O89093); assay: SPR; Biacore T200; muCCL20 immobilised on a CM4 chip (~30 RU); Fab 0.02-50 nM at 100 uL/min; HBS-EP pH 7.4; 1:1 model; apparent KD = koff/kon; conditions: both partners purified
T4 construct: CCL20, mouse; recombinant; also called muCCL20; mouse CCL20; source: in-house, standard mammalian cell expression; purified

murine CCL20 [5] = target: T3, murine CCL20; assay: SPR
murine CCL20 (mouse) = murine CCL20 (mouse) (UniProt O89093)
murine CCL20 [6] = target: T4, murine CCL20; assay: ELISA; mouse or human CCL20 coated at 2 ug/mL on Maxisorp plates overnight at 4°C; antibody dilutions starting at 60 nM; detected with anti-Fc-HRP; conditions: both partners purified

Binder	binding result [1]	Kd (murine CCL20 [3]) [nM]	binding result (murine CCL20 [4])	koff (murine CCL20 [5]) [s⁻¹]	fold decrease in antibody IC50 against parental AB1, CCR6 CHO-K1 β-arrestin assay with 4 nM muCCL20; blocks muCCL20 with muCCR6 (murine CCL20 (mouse)) [fold]	further results
AB1 alanine variant 7 (H:S28A, H:N113A, L:K36A) (antibody, V domains shown, IMGT numbering; IgG1, as m1; source: HEK293FT, transiently transfected, purified (Protein A)) VH: QVQLQQSGAELAKPGSSVKISCKAYGASFTTNSIHWIKQTTGQALEWTGYIAPGSGGARYNEKFKGKATLTVDKSSGTAYMQLSSLTPVDTAVYYCALNIGTAPFTYWGQGTLVTVSS VL: DIVMTQGALPNPVPSGESVSITCRSSKSLLYSDGATYLNWYLQRPGQSPQLLIYWMSTRASGVSDRFSGSGSGTDFTLKISGVEAEDVGVYYCQQGLEFPRTFGSGTKLEIK	binds	–	–	–	–	response [2]: 0.86 A450
AB1 Fab fragment (Fab, V domains shown, Fab of m1; also called parental AB1 (Fab); source: papain cleavage of the purified antibody; purified by anion and cation exchange chromatography) VH: QVQLQQSGAELAKPGSSVKISCKAYGSSFTTNSIHWIKQTTGQALEWTGYIAPGSGGARYNEKFKGKATLTVDKSSGTAYMQLSSLTPVDTAVYYCALNIGTNPFTYWGQGTLVTVSS VL: DIVMTQGALPNPVPSGESVSITCRSSKSLLYSDGKTYLNWYLQRPGQSPQLLIYWMSTRASGVSDRFSGSGSGTDFTLKISGVEAEDVGVYYCQQGLEFPRTFGSGTKLEIK	–	9.1	binds	0.0077	–	–
AB1-C16 Fab fragment (L:G35Y) (Fab, V domains shown, IMGT numbering; Fab of m43; source: papain cleavage of the purified antibody; purified by anion and cation exchange chromatography) VH: QVQLQQSGAELAKPGSSVKISCKAYGSSFTTNSIHWIKQTTGQALEWTGYIAPGSGGARYNEKFKGKATLTVDKSSGTAYMQLSSLTPVDTAVYYCALNIGTNPFTYWGQGTLVTVSS VL: DIVMTQGALPNPVPSGESVSITCRSSKSLLYSDYKTYLNWYLQRPGQSPQLLIYWMSTRASGVSDRFSGSGSGTDFTLKISGVEAEDVGVYYCQQGLEFPRTFGSGTKLEIK	–	8.4	binds	0.007	–	–
AB1-C1-16 (H:S28R, L:G35Y) (antibody, V domains shown, IMGT numbering; IgG1, as m1; also called clone 1–16; combination clone; source: HEK293FT, transiently transfected, purified (Protein A)) VH: QVQLQQSGAELAKPGSSVKISCKAYGRSFTTNSIHWIKQTTGQALEWTGYIAPGSGGARYNEKFKGKATLTVDKSSGTAYMQLSSLTPVDTAVYYCALNIGTNPFTYWGQGTLVTVSS VL: DIVMTQGALPNPVPSGESVSITCRSSKSLLYSDYKTYLNWYLQRPGQSPQLLIYWMSTRASGVSDRFSGSGSGTDFTLKISGVEAEDVGVYYCQQGLEFPRTFGSGTKLEIK	binds	–	–	–	4	–
AB1-C1 Fab fragment (H:S28R) (Fab, V domains shown, IMGT numbering; Fab of m28; also called Clone AB1-C1; source: papain cleavage of the purified antibody; purified by anion and cation exchange chromatography) VH: QVQLQQSGAELAKPGSSVKISCKAYGRSFTTNSIHWIKQTTGQALEWTGYIAPGSGGARYNEKFKGKATLTVDKSSGTAYMQLSSLTPVDTAVYYCALNIGTNPFTYWGQGTLVTVSS VL: DIVMTQGALPNPVPSGESVSITCRSSKSLLYSDGKTYLNWYLQRPGQSPQLLIYWMSTRASGVSDRFSGSGSGTDFTLKISGVEAEDVGVYYCQQGLEFPRTFGSGTKLEIK	–	2.3	–	0.0029	–	fold improvement in KD against parental AB1 (murine CCL20 [4]): 4 fold
AB1 anti-muCCL20 monoclonal antibody (antibody, V domains shown, VH of AB1; VL of AB1; IgG1 (in-house mammalian expression vector); hybridoma derived; also called WT AB1; parental AB1; source: HEK293FT, transiently transfected, purified from supernatant (Protein A)) VH: QVQLQQSGAELAKPGSSVKISCKAYGSSFTTNSIHWIKQTTGQALEWTGYIAPGSGGARYNEKFKGKATLTVDKSSGTAYMQLSSLTPVDTAVYYCALNIGTNPFTYWGQGTLVTVSS VL: DIVMTQGALPNPVPSGESVSITCRSSKSLLYSDGKTYLNWYLQRPGQSPQLLIYWMSTRASGVSDRFSGSGSGTDFTLKISGVEAEDVGVYYCQQGLEFPRTFGSGTKLEIK	binds	–	–	–	–	binding result (murine CCL20 [6]): binds
AB1-C16 (L:G35Y) (antibody, V domains shown, IMGT numbering; IgG1, as m1; also called clone 16; VL clone 16; source: HEK293FT, transiently transfected, purified (Protein A)) VH: QVQLQQSGAELAKPGSSVKISCKAYGSSFTTNSIHWIKQTTGQALEWTGYIAPGSGGARYNEKFKGKATLTVDKSSGTAYMQLSSLTPVDTAVYYCALNIGTNPFTYWGQGTLVTVSS VL: DIVMTQGALPNPVPSGESVSITCRSSKSLLYSDYKTYLNWYLQRPGQSPQLLIYWMSTRASGVSDRFSGSGSGTDFTLKISGVEAEDVGVYYCQQGLEFPRTFGSGTKLEIK	binds	–	–	–	2	–
AB1-C1-16 Fab fragment (H:S28R, L:G35Y) (Fab, V domains shown, IMGT numbering; Fab of m48; also called combination clone AB1-C1-16; source: papain cleavage of the purified antibody; purified by anion and cation exchange chromatography) VH: QVQLQQSGAELAKPGSSVKISCKAYGRSFTTNSIHWIKQTTGQALEWTGYIAPGSGGARYNEKFKGKATLTVDKSSGTAYMQLSSLTPVDTAVYYCALNIGTNPFTYWGQGTLVTVSS VL: DIVMTQGALPNPVPSGESVSITCRSSKSLLYSDYKTYLNWYLQRPGQSPQLLIYWMSTRASGVSDRFSGSGSGTDFTLKISGVEAEDVGVYYCQQGLEFPRTFGSGTKLEIK	–	2.8	binds	0.0042	–	–
AB1-C1 (H:S28R) (antibody, V domains shown) VH: QVQLQQSGAELAKPGSSVKISCKAYGRSFTTNSIHWIKQTTGQALEWTGYIAPGSGGARYNEKFKGKATLTVDKSSGTAYMQLSSLTPVDTAVYYCALNIGTNPFTYWGQGTLVTVSS VL: DIVMTQGALPNPVPSGESVSITCRSSKSLLYSDGKTYLNWYLQRPGQSPQLLIYWMSTRASGVSDRFSGSGSGTDFTLKISGVEAEDVGVYYCQQGLEFPRTFGSGTKLEIK	–	–	–	–	4	–

— publication PMC6513101, “Experimentally guided computational antibody affinity maturation with de novo docking, modelling and rational design” (PLoS Computational Biology, 2019)
